Where a chain is given by its changes, count along the chain named. In names and notes the source's numbering stands.
B1: MttB (Methanosarcina barkeri; C-TERMINAL/CHANGE/GGHHHHHH/IS/NO/TAG) (protein)
chain: MAKNNAVAGFNALNGVELNLFTTDELKAIHYATMEVLMDPGIQVSDPEARQIFKENGCEVNEKTNVVKIPEYLVRKALQLAPSRFVLWGRDKKFNTVQECGGKVHWTCFGTGVKVCKYQDGKYVTVDSVEKDIADIAKLCDWAENIDYFSLPVSARDIAGQGAQDVHETLTPLANTAKHFHHIDPVGENVEYYRDIVKAYYGGDEEEARKKPIFSMLLCPTSPLELSVNACQVIIKGARFGIPVNVLSMAMSGGSSPVYLAGTLVTHNAEVLSGIVLAQLTVPGAKVWYGSSTTTFDLKKGTAPVGSPELGLISAAVAKLAQFYGLPSYVAGSOSDAKVPDDQAGHEKTMTTLLPALAGANTIYGAGMLELGMTFSMEQLVIDNDIFSMVKKAMQGIPVSEETLAVESIQKVGIGNNFLALKQTRQLVDYPSNPMLLDRHMFGDWAAAGSKDLATVAHEKVEDVLKNHQVTPIDADIFKDMQAIVDKADKAFRGM
notes: full length with C-terminal GGHHHHHH tag, contains pyrrolysine at 334 (amber codon); expressed in Methanosarcina acetivorans C2A; D3 homohexamer (trimer of dimers)
B2: MttB (Methanosarcina barkeri; Y364F) (protein)
chain: B1 chain with Y364F
notes: as for B1
B3: Methanosarcina barkeri trimethylamine methyltransferase MttB (enzyme, Methanosarcina barkeri MS, UniProt O93658 1-495, looked up)
chain: B1 chain
modifications: pyrrolysine at 334 (Pyl334)
notes: Trimethylamine methyltransferase MttB, product of the mttB1 gene amplified from M. barkeri MS genomic DNA; the in-frame amber codon is read as pyrrolysine (Pyl334); residues 2-495 are described in the structure; D3-symmetric homo-hexamer (trimer of dimers) in the crystals; No step that removes the tag is described; The PDB ids are printed in two ways (7XCL/7XCM in the methods, 7LCL/7LCM in the …)
B4: Methanosarcina barkeri trimethylamine corrinoid protein MttC (natural protein, UniProt O93659 1-217, looked up)
chain: MANKEEIIAKAKEAITDFDDELAEEVANEALAAGIDPVELIEKGFTAGMEEVGEKFGQGELFLPHVLAAAEAMNSGIKVITPEMEKRKSQTKSLGTVAIGTIEGDIHSIGKDIVASMLNIAGFKVVDLGRDVPINTFVEKVKELKPQVVASSALMTTTMVNQIQIEEQLKEAGVRDQVKTMVGGAPVTQDWADKIGADIYGESANDAVAKVKAALNV
notes: Trimethylamine corrinoid protein MttC of M. barkeri; mttC gene cloned by a strategy similar to that for mttB1; helical cap domain residues 2-84, connecting loop 85-95, core domain 96-216; No step that removes the tag is described; also called MttC-His6; cognate corrinoid protein; source: Methanosarcina acetivorans C2A transformed with plasmid pTC311, purified (HiTrap HP column, Mono-Q HR 10/10)

What was measured:
MttB = target: T1, MttB (Methanosarcina barkeri, UniProt O93658); test: X-ray crystal structure, […] Å; format: binding; conditions: covalent; adduct on imine carbon of Pyl334; crystal soaked with saturated sodium dithionite, pH 4.5
T1 construct: full length with C-terminal GGHHHHHH tag, contains pyrrolysine at 334 (amber codon); expressed in Methanosarcina acetivorans C2A; D3 homohexamer (trimer of dimers)

purified protein = substrate: CN(C)C; test: purified protein; format: biochemical, Methanosarcina barkeri; conditions: 30 µM Co(I)-MttC as methyl acceptor, RamA, 2 mM Ti(III)-citrate, 2.5 mM ATP, 2.5 mM MgCl2, phosphate pH 7.2, 37 °C, anaerobic
[1] = target: the molecule itself; test: crystal structure; MttB alone; vapor diffusion at 10 °C; 8 mg/mL MttB in 20 mM potassium phosphate pH 7.4, 500 mM NaCl, 240 mM imidazole, 20% glycerol; reservoir 4% MPD, 0.1 M citric acid pH 4.5; 2.5 Å
[2] = target: B3; test: crystal structure; MttB-MttC complex; hanging drops at 10 °C of MttB (3 mg/mL) and MttC (10 mg/mL) mixed with 18% PEG8000, 0.1 M citric acid pH 5, 1 M LiCl; crystals soaked with 12.5 mM N,N-dimethyl-hydroxylamine; 2.7 Å, space group P21; conditions: both partners purified

| Molecule | Km (purified protein) [µM] | kcat (purified protein) [turnovers per min] | other results |
| --- | --- | --- | --- |
| O=S(O)O [sulfite] |  |  | X-ray crystal structure, 3.2 Å (MttB): addition of sulfite to the pyrrolysine imine carbon of MttB was observed |
| B1 | 49 ± 6 | 48 ± 2 |  |
| B2 | 75 ± 11 | 1.7 ± 0.1 |  |
| B3 |  |  | stoichiometry N [1]: 6 |
| B4 |  |  | binding result [2]: binds |
